Reference: article PMC11806408

Biological target: N‐10/C‐9 fusion PD (human)
Assay: SPR; PDs of BMP‐9, BMP‐10 and N‐10/C‐9 fusion PD immobilised at 450 RUs on a CM5 chip by amine coupling; BMP‐10 GF 0 to 80 nM, 1:2 serial dilutions, 1× HBS‐EP; 1:1 model with mass transfer; apparent KD = kd/ka

Kd: 13.2 nM
koff: 0.0032 s⁻¹
kon: 220000 M⁻¹ s⁻¹
B1: BMP‐10 GF (R&D Systems #2926‐BP‐025/CF) (ligand)
chain: NAKGNYCKRTPLYIDFKEIGWDSWIIAPPGYEAYECRGVCNYPLAEHLTPTKHAIIQALVHLKNSQKASKACCVPTKLEPISILYLDKGVVTYKFKYEGMAVSECGCR
